# Laboratory results reported in US20250215467A1, “L-THREONINE TRANSALDOLASES AND USES THEREOF” (University of Delaware, priority 2022, published 2025).
# B1: PbTTA: L-threonine transaldolase, SEQ ID NO: 16, Parachlamydiales bacterium, MBN2478762.1 (protein, listed as Parachlamydiales bacterium)
# chain: METSLKDFETILHLINKEEIDSNDTIHMTANENIMSKLSKHYLKSTLSYRYHVGMFDDQKNLTVSRSCLIKNSLMLRCLSPIFLLEQQAREYVKKMFFAEYADFRPLSGMHTVFCILSTLTKPNDRVYVFTTESVGHAATVSLLKSLGRKVSFIPFCEKKLDIDLEKLSKQILIEKPNAILFDFGTPFYPLPIREIREIVGNDVKMIYDASHVLGLIAGGQFQNPLLEGCDVLIGNTHKTFPGPQKGMILYKNKSLGKEIATEIFKSAISAQHTHHAIALYVTIIEMYIHGKEYANQIIKNNHALSQALINEGFKIFKRKNQFSLSHMIAITGDFPIDHHVACADLHNSNISTNSRILYDFPAVRIGVQEVTRKGMKEKDMVQLAKFFKEIILDRKNISSKIKEFNNKFNSIEYSLDEIYEKLF
# Assay: TTA-ADH coupled assay at different L-Thr concentrations (apparent L-Thr KM and kcat)
# Assay type: biochemical
# Method: High-throughput screening of purified TTAs was performed with a TTA-ADH coupled assay using purified TTA and commercially available alcohol dehydrogenase from S. cerevisiae purchased from MilliporeSigma. Aldehyde stocks were prepared in 50-100 mM solutions in DMSO or acetonitrile. Reaction mixtures were prepared in a 96-well plate with 100 μL of 100 mM phosphate buffer pH 7.5, 0.5 mM NADH, 0.4 mM PLP, 15 mM MgCl2, and 100 mM L-Thr with the addition of 0.25 mM to 1 mM aldehyde depending on the background absorbance at 340 nm (Table 4), 10 U ScADH, and 0.25 μM purified TTA unless otherwise specified. Reactions were initiated with the addition of enzyme. […] The following controls were included for every assay: reaction mixture without aldehyde, without TTA, and without enzyme (TTA or ADH). Rates were calculated by identifying the linear region at the beginning of the kinetic run and converting the depletion in absorbance to the depletion of mM NADH using an NADH standard curve.
# We next sought to determine the affinity of these enzymes for L-Thr, which we obtained by performing the TTA-ADH coupled assay at different L-Thr concentrations (FIG. 16b). […] Two differences between our assays were the substrate, phenylacetaldehyde (14) instead of 4-nitrophenylacetylaldehyde (15), and the assay format, ADH coupling rather than a discontinuous HPLC assay. Because a live cellular environment would also contain alcohol dehydrogenases for reduction of acetaldehyde, it is possible that the KM values that we are measuring using the TTA-ADH coupled assay may be more realistic for our envisioned applications.
molecule,measurement,setting,value
B1,Km,"apparent, phenylacetaldehyde (14) as aldehyde, ADH coupling, non-linear regression",10.9 mM
same,L-Thr kcat compared with ObiH,phenylacetaldehyde as the aldehyde substrate,higher measured L-Thr kcat values than ObiH
